In patent US20040077031:

System: MAS (methionine-alanine-serine) trimeric peptide

For “recombinant human methionine aminopeptidase type 1 (MetAP1) with N-terminal histidine tag”, the “enzymatic cleavage of peptide substrate” value was “showed enzymatic activity in cleaving a tripeptide MAS substrate”.
